{"source": "patent US20250332297A1", "about": "“DLL3-SPECIFIC BINDING CONSTRUCTS AND THEIR USE IN RADIOTHERAPY” (MOLECULAR PARTNERS AG, priority 2024, published 2025)", "molecules": {"B1": {"name": "MAM160: Two domain (2D) ankyrin repeat protein: serum albumin-specific domain (SEQ ID NO: 7), PT linker, DLL3-specific domain MAM120 (protein)", "chain": "DLGKKLLEAARAGQDDEVRELLKAGADVNAKDYFSHTPLHLAARNGHLKIVEVLLKAGADVNAKDFAGKTPLHLAADAGHLEIVEVLLKAGADVNAQDIFGKTPADIAADAGHEDIAEVLQKAAGSPTPTPTTPTPTPTTPTPTPTGSDLGTKLLSAAADGQDDEVRELLQAGADVNAKDLFGYTPLHLAAWRGHLEIVEVLLEAGADVNAKDAAGLTPLHLAAWFGHLEIVEVLLEAGADVNAQDVQGVTPADLAAKEGHEDIAEVLQQAA", "modifications": "Ankyrin repeat protein (MAM160)"}}, "key": {"[1]": {"molecular_target": "T1, human DLL3 expressed on HEK293T-huDLL3 cells (Homo sapiens, UniProt Q9NYJ7)", "T1 construct": "expressed in transfected cells; host or cells: HEK293T-hDLL3", "T1 sequence (Q9NYJ7 27-618)": "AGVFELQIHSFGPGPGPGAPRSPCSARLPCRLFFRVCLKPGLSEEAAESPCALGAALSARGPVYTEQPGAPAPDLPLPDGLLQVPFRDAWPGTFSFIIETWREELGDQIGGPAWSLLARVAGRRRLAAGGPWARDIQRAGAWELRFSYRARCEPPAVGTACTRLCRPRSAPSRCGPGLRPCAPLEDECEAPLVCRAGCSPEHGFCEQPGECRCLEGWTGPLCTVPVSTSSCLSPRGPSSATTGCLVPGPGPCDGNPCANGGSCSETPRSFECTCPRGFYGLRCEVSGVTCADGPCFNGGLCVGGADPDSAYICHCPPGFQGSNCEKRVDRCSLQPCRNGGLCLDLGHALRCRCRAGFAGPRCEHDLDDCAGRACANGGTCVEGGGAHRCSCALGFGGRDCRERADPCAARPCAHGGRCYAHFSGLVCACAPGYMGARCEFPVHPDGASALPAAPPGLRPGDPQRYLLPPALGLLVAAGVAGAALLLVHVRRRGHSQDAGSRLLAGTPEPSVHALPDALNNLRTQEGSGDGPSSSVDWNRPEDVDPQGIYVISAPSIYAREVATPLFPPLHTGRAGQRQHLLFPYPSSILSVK", "assay": "Cell binding titration on HEK293T-hDLL3 cells", "format": "cell-based", "conditions": "presence of human serum albumin (10 μM in FIG. 9 legend, 10 pM in the source), read-out: Cell binding EC50, with HSA"}, "hDLL3-MC38 tumor model": {"test_system": "hDLL3-MC38 tumor model", "assay": "Biodistribution of radio-labelled DARPin conjugates in hDLL3-MC38 tumor model", "format": "in vivo, mouse", "conditions": "Pb-212 DOTAM conjugate 0.01 mg/kg (10 μCi) i.v., s.c. hDLL3-MC38", "source_text": "hDLL3-MC38 tumor model. ATH mice were purchased from Envigo. General handling and maintenance of mice was done as described above for the NCI-H82 tumor model. hDLL3-MC38 cells were purchased from Biocytogen (Catalog No. 311448). […] Cells were quantified using Countess cell counter.\nBiodistribution study. […] Based on immunohistochemistry analyses, the hDLL3-MC38 tumors have a higher level of human DLL3 expression than the NCI-H82 tumors described in Example 3 (data not shown). Biodistribution was monitored at 1 h, 4 h and 24h post-injection. Mice were euthanized by CO2 inhalation and cervical dislocation.\nMice were euthanized by CO2 inhalation and cervical dislocation."}, "NCI-H82 tumor model": {"test_system": "NCI-H82 tumor model", "assay": "Biodistribution of radio-labelled DARPin conjugates in NCI-H82 tumor model", "conditions": "mouse, in vivo, iv, 0.01 mg/kg", "method": "NCI-H82 tumor model. R2G2 mice were purchased from Envigo. All studies were conducted under the approval of the institutional IACUC committee. Animals were maintained under specific-pathogen-free (SPF) conditions with daily cycles of light and darkness (12 h/12 h), in line with ethical guidelines. No manipulations were performed during the first 5 days after arrival, to allow the animals to acclimatize to the new environment. All mice were monitored daily for assessment of physical condition and general well-being. NCI-H82 cells were purchased from ATCC (Catalog No. HTB-175). Solid xenografts were established by subcutaneous (SQ) injection of NCI-H82 cells in RPMI media mixed 1:1 with Corning® Matrigel® basement membrane matrix (GFR; Corning, Cat No 354230.). Cells were quantified using Countess cell counter. Each mouse was injected SQ with 5×10^6 NCI-H82 cells in 100 μL RPMI/GFR-Matrigel into the right flank of each mouse. Tumor volumes were estimated three times per week through calipering, according to the formula: volume=0.5×length×width^2 and grown until they reached 200-300 mm^3. Tumor-associated antigen level expressed in tumors, tumor vascularization profile and DLL3 soluble form in mouse serum was tested.\nBiodistribution study. […] Radio-labeled (Pb-212) DARPin conjugates were then injected at 0.01 mg/kg (10 μCi DARPin conjugates) into the tail vein of R2G2 mice (females) xenografted subcutaneously (at age of about 7 weeks) with NCI-H82 cells (5 million cells, growth factor reduced Matrigel) and bearing tumors (5-10 mm in diameter). […] Biodistribution was monitored at 4 h and 24h post-injection. Mice were euthanized by CO2 inhalation and cervical dislocation. Blood, spleen, kidneys, liver and tumor were extracted, weighed and the radioactivity was determined with a γ-counter counter (such as Wizard^22470, Perkin Elmer). The data were expressed as the % injected dose/gram (% ID/g).\nRadio-labeled (Pb-212) DARPin conjugates were then injected at 0.01 mg/kg (10 μCi DARPin conjugates) into the tail vein of R2G2 mice (females) xenografted subcutaneously (at age of about 7 weeks) with NCI-H82 cells (5 million cells, growth factor reduced Matrigel) and bearing tumors (5-10 mm in diameter). Biodistribution was monitored at 4 h and 24h post-injection. Mice were euthanized by CO2 inhalation and cervical dislocation. Kidneys and tumor were extracted, weighed and the radioactivity was determined with a γ-counter counter (such as Wizard^22470, Perkin Elmer). The data were expressed as the % injected dose/gram (% ID/g) and the tumor to kidney (T:K) ratio was determined.\nRadio-labelled (Pb-212) DARPin conjugates were then injected at 0.01 mg/kg (10 μCi DARPin conjugates) (i) into the tail vein of R2G2 mice (females) xenografted subcutaneously (at age of about 7 weeks) with NCI-H82 cells (5 million cells, growth factor reduced Matrigel) and bearing tumors (5-10 mm in diameter), and (ii) into the tail vein of athymic nude mice (females) xenografted subcutaneously (at age of about 7 weeks) with hDLL3-MC38 cells (5 million cells, growth factor reduced Matrigel) and bearing tumors (5-10 mm in diameter). Biodistribution was monitored at 4 h and 24h post-injection. Mice were euthanized by CO2 inhalation and cervical dislocation. Blood, bladder, small intestine, colon, spleen, kidneys, liver, lung, heart, tail and tumor were extracted, weighed and the radioactivity was determined with a γ-counter (such as Wizard^22470, Perkin Elmer). The data were expressed as the % injected dose/gram (% ID/g)."}, "[2]": {"conditions": "athymic nude mice, 4 h, Example 7"}, "[3]": {"conditions": "athymic nude mice, 24 h, Example 7"}}, "data": [{"molecule": "B1", "values": [{"measurement": "EC50", "setting": "[1]", "value": 36.6, "unit": "nM"}, {"measurement": "Blood % ID/g", "setting": "hDLL3-MC38 tumor model; athymic mice, 1 h, Example 4", "value": 38, "unit": "% ID/g"}, {"measurement": "Kidneys % ID/g", "setting": "hDLL3-MC38 tumor model; athymic mice, 1 h, Example 4", "value": 12, "unit": "% ID/g"}, {"measurement": "T:K ratio", "setting": "hDLL3-MC38 tumor model; athymic mice, 1 h, Example 4", "value": 0.58}, {"measurement": "Tumors % ID/g", "setting": "hDLL3-MC38 tumor model; athymic mice, 1 h, Example 4", "value": 7, "unit": "% ID/g"}, {"measurement": "Blood % ID/g", "setting": "hDLL3-MC38 tumor model; athymic mice, 4 h, Example 4", "value": 25, "unit": "% ID/g"}, {"measurement": "Kidneys % ID/g", "setting": "hDLL3-MC38 tumor model; athymic mice, 4 h, Example 4", "value": 12, "unit": "% ID/g"}, {"measurement": "T:K ratio", "setting": "hDLL3-MC38 tumor model; athymic mice, 4 h, Example 4", "value": 1.42}, {"measurement": "Tumors % ID/g", "setting": "hDLL3-MC38 tumor model; athymic mice, 4 h, Example 4", "value": 17, "unit": "% ID/g"}, {"measurement": "Blood % ID/g", "setting": "hDLL3-MC38 tumor model; athymic mice, 24 h, Example 4", "value": 3, "unit": "% ID/g"}, {"measurement": "Kidneys % ID/g", "setting": "hDLL3-MC38 tumor model; athymic mice, 24 h, Example 4", "value": 17, "unit": "% ID/g"}, {"measurement": "T:K ratio", "setting": "hDLL3-MC38 tumor model; athymic mice, 24 h, Example 4", "value": 1.53}, {"measurement": "Tumors % ID/g", "setting": "hDLL3-MC38 tumor model; athymic mice, 24 h, Example 4", "value": 26, "unit": "% ID/g"}, {"measurement": "Blood % ID/g", "setting": "hDLL3-MC38 tumor model; [2]", "value": 17.9, "unit": "% ID/g"}, {"measurement": "Kidneys % ID/g", "setting": "hDLL3-MC38 tumor model; [2]", "value": 11.6, "unit": "% ID/g"}, {"measurement": "Tumors % ID/g", "setting": "hDLL3-MC38 tumor model; [2]", "value": 18.8, "unit": "% ID/g"}, {"measurement": "Blood % ID/g", "setting": "hDLL3-MC38 tumor model; [3]", "value": 1.9, "unit": "% ID/g"}, {"measurement": "Kidneys % ID/g", "setting": "hDLL3-MC38 tumor model; [3]", "value": 18, "unit": "% ID/g"}, {"measurement": "Tumors % ID/g", "setting": "hDLL3-MC38 tumor model; [3]", "value": 28.9, "unit": "% ID/g"}, {"measurement": "Blood % ID/g", "setting": "NCI-H82 tumor model; 4 h", "value": 13.8, "unit": "% ID/g"}, {"measurement": "Kidneys % ID/g", "setting": "NCI-H82 tumor model; 4 h", "value": 12.4, "unit": "% ID/g"}, {"measurement": "Tumors % ID/g", "setting": "NCI-H82 tumor model; 4 h", "value": 7.1, "unit": "% ID/g"}, {"measurement": "Blood % ID/g", "setting": "NCI-H82 tumor model; 24 h", "value": 3.2, "unit": "% ID/g"}, {"measurement": "Kidneys % ID/g", "setting": "NCI-H82 tumor model; 24 h", "value": 18.7, "unit": "% ID/g"}, {"measurement": "Tumors % ID/g", "setting": "NCI-H82 tumor model; 24 h", "value": 13.3, "unit": "% ID/g"}]}]}
